# Measurements as given in article PMC4578769, “Development of a Fluorescence-based Trypanosoma cruzi CYP51 Inhibition Assay for Effective Compound Triaging in Drug Discovery Programmes for Chagas Disease” (PLoS Neglected Tropical Diseases, 2015).
# B1: T. cruzi CYP51 (Trypanosoma cruzi strain CL Brener) (protein)
# chain: MFIEAIVLALTALILYSVYSVKSFNTTRPTDPPVYPVTVPFLGHIVQFGKNPLEFMQRCKRDLKSGVFTISIGGQRVTIVGDPHEHSRFFSPRNEILSPREVYTIMTPVFGEGVAYAAPYPRMREQLNFLAEELTIAKFQNFVPAIQHEVRKFMAENWKEDEGVINLLEDCGAMIINTACQCLFGEDLRKRLNARHFAQLLSKMESSLIPAAVFMPWLLRLPLPQSARCREARAELQKILGEIIVAREKEEASKDNNTSDLLGGLLKAVYRDGTRMSLHEVCGMIVAAMFAGQHTSTITTSWSMLHLMHPKNKKWLDKLHKEIDEFPAQLNYDNVMDEMPFAERCVRESIRRDPPLLMVMRMVKAEVKVGSYVVPKGDIIACSPLLSHHDEEAFPNPRLWDPERDEKVDGAFIGFGAGVHKCIGQKFALLQVKTILATAFREYDFQLLRDEVPDPDYHTMVVGPTLNQCLVKYTRKKKLPS
# notes: ompA leader (N); host or cells: E. coli JM109 (membrane fraction, bactosomes)
# Substrate: N#Cc1cc2ccc(OCOCc3ccccc3)cc2oc1=O
# Experiment: Michaelis-Menten kinetic determination of BOMCC O-dealkylation
# Type: biochemical, Trypanosoma cruzi
# Settings: other: 37 pmoles/mL T. cruzi CYP51 enzyme, 25-250 μM BOMCC, 37°C
# Procedure: Incubations were pre-warmed at 37°C before addition of NADPH regenerating system. Production of CHC was measured at 1 minute intervals at 37°C (Exc 410 nm, Em 460 nm) for 10 minutes (Fig 3b). […] Assay conditions of 37 pmoles/mL of T. cruzi CYP51 in bactosomes and 100 μM BOMCC provided a good dynamic range of metabolism.
protein,measurement,value
B1,Km,191 ± 55 µM
